Drawing on the RNAGym collection of RNA variant scans (doi:10.7554/elife.80360), this text covers self-cleavage for 167 variants.

First the molecules themselves.
B1: HDV Ribozyme (parent)
chain: GGCCGGCAUGGUCCCAGCCUCCUCGCUGGCGCCGGCUGGGCAACAUUCCGAGGGGACCGUCCCCUCGGUAAUGGCGAAUGGGACCCA

The variants in this data set derive from B1. The data set is described as follows: self-cleavage, relative activity (ratio to wild type); higher = more cleavage; co-transcriptional.
Take A16G G25C: the self-cleavage turned out to be 0.166. On to C32G G74A, for which the self-cleavage came out at 0.126. For C19G C66G the value was 0.141. Turning to G31C C41U, the self-cleavage came out at 0.138. In the case of C33A G38U, the self-cleavage came to 0.153.

As for C62G U72G, the self-cleavage stood at 0.277. For G31C G39A the value was 0.0554; for G11C C49A, 0.388. For G29A U37A the value was 0.136; for G67A C75U, 0.189; for C15G U23G, 0.415.

Take G40A U47G: the self-cleavage came out at 0.831. For A8U G52U the value was 0.872; for C14A A87G, 0.659. As to G29U C44G, the self-cleavage was found to be 0.0326. For C19U the value was 0.152; for G11U G68U, 0.17. For G25A C26A the value was 0.0852; for A16C C44U, 0.35.

As for G17A C57U, the self-cleavage amounted to 0.727. As for C32G G73C, the self-cleavage turned out to be 0.12. In the case of C21U A83U, the self-cleavage worked out at 0.162.

Regarding U37G A83C, the self-cleavage is 0.0678.

For the variant U79A C86A, the self-cleavage was found to be 0.688. For G54C C63G the value was 0.831; for C22U C32G, 0.0941; for A56U U65A, 1. For G38A A42C the value was 0.148; for G6C U9C, 0.391. With A8U C33A, the self-cleavage stood at 0.185.

C4G G80U: the self-cleavage was found to be 0.0953.

On to U20C C26U, for which the self-cleavage was found to be 0.192. Consider U20G G25C, for which the self-cleavage is 0. For C13U C62U the value was 0.589; for C26G C33U, 0.867.

Consider G40C A71G, for which the self-cleavage came to 0.162. As for G38U U69A, the self-cleavage worked out at 0.256. With C14A C33A, the self-cleavage is 0.0959. For G67U U79A the value was 0.601; for C15A A87G, 0.776.

C21A C75A: the self-cleavage turned out to be 0. On to C30A G80C, for which the self-cleavage turned out to be 0.272.

With G50A G53C, the self-cleavage was 0.759. For G31A the value was 0.503; for U9C C18U, 0.457. For C41U C49U the value was 0.749; for C58G C62U, 0.73; for G1C C26G, 0.227.

For the variant C33U G40C, the self-cleavage came out at 0.286. Regarding G1C U37C, the self-cleavage was 0.128. For G10A A51G, the self-cleavage came out at 0.546. For C14A U79C the value was 0.173. For U12C A51U the value was 0.359; for C63A U79C, 0.455. For the variant C7G U12C, the self-cleavage turned out to be 0.111. In the case of C44A C66A, the self-cleavage turned out to be 0.628. For G80C the value was 0.187; for G68C C85G, 0.733.

As for C30U G54C, the self-cleavage worked out at 0.533. Consider C4G C21A, for which the self-cleavage amounted to 0.0292.

Regarding C33U C64A, the self-cleavage came to 0.591.

With G5A C85G, the self-cleavage came out at 0.147. C15G G76A: the self-cleavage was determined as 0.665. For C64G C86G the value was 0.859; for G38U G80C, 0.108. For G39A A83U, the self-cleavage came to 0.185. As for G68U C75U, the self-cleavage came to 0.225. For C18A A45G the value was 0.0594. For G10C A43G the value was 0.317; for G59A G76U, 1.21.

Regarding U20G C86G, the self-cleavage came out at 0.287. For U9A C15G the value was 0.499. For A45G A78C, the self-cleavage was 0.237. In the case of G39C A56U, the self-cleavage came to 0.13. For G54A G76A the value was 0.923; for C26U A87C, 0.953; for C64G, 0.954. For U37G C66A the value was 0.199; for G2C G80U, 0.0392. For G35A C85G the value was 0.643. Regarding G5A C62A, the self-cleavage was found to be 0.

C63A A71U: the self-cleavage was found to be 1.11.

Consider U46G U47A, for which the self-cleavage was 0.8.

With G10C C66A, the self-cleavage came to 0.848. Regarding G40A U79C, the self-cleavage is 0.41. For G1U C75A the value was 0.277; for G53U C58U, 1.03; for A8C C58G, 0.68. For the variant G11U G74C, the self-cleavage was found to be 0.0845. For G73A C85U the value was 0.73; for U12G C15A, 0.237. In the case of C48U G82A, the self-cleavage was determined as 0.532.

With C33A U60A, the self-cleavage worked out at 0.193. Consider U23C A87U, for which the self-cleavage is 0.953. For G73A G80U the value was 0.153; for A42C C85U, 0.415.

Turning to C21U C64A, the self-cleavage worked out at 0.185. For the variant A16G C61G, the self-cleavage was found to be 0.962.

Turning to G54A C64A, the self-cleavage worked out at 0.453. With G5C C26A, the self-cleavage stood at 0.508. As for A16U C58A, the self-cleavage was found to be 1.09. G10A A42G: the self-cleavage amounted to 0.251.

On to G29C C41A, for which the self-cleavage is 0. For G73U G80A the value was 0.0839; for C18G C24U, 0.107; for A16C U69A, 0.767. Regarding U46G C63A, the self-cleavage worked out at 0.415. For C75G A87U the value was 0.143. For C7A C22G the value was 0.0791. For C26G U60C the value was 1.31; for G17A G50C, 0.502. For the variant G52A U65C, the self-cleavage turned out to be 0.954.

Consider U37C C58G, for which the self-cleavage is 0.872. For G34U G59U the value was 0.229; for G39U A42G, 0.249.

For the variant U12C A87G, the self-cleavage stood at 0.369.

Turning to C66G G76C, the self-cleavage amounted to 0.73.

C49U G54U: the self-cleavage is 0.87. Consider C30G G55C, for which the self-cleavage was 0.111. For U37G A71G the value was 0.0594; for C57A A78C, 0.0437; for C64U C86U, 0.772. For C22A C57G the value was 0.543; for G6U U60G, 0.346; for G17A G68U, 0.659. As to U60C G76C, the self-cleavage turned out to be 1.16.

For G59A A83U, the self-cleavage was 0.59.

For the variant G2C G68A, the self-cleavage was 0.0504.

Consider G82A C84A, for which the self-cleavage is 0.399. Take G54A C86U: the self-cleavage stood at 0.992. On to G35C G67C, for which the self-cleavage worked out at 0.0519.

Regarding G82U A87G, the self-cleavage is 0.387. For G5C U12C the value was 0; for G52A G81A, 0.529; for U79A C84A, 0.539.

In the case of G10A G59C, the self-cleavage amounted to 0.684.

On to U20C G31A, for which the self-cleavage amounted to 0.0415. As for C18A G81A, the self-cleavage is 0.0755. With G35A G67C, the self-cleavage came to 0.564. For U23G C64U the value was 0.61; for U37C U65C, 1.05. For U12G C66U the value was 0.853. For C41A C58A the value was 0.831. As for A56C G74A, the self-cleavage was 0.65.

As for A45U C61U, the self-cleavage was determined as 0.876. For C18U C62G, the self-cleavage came out at 0.543. For U27G C85U the value was 0.807. For G35U U72G the value was 0.151; for C19A C62A, 0.0536. For A16C C64U, the self-cleavage came to 1.02.

With C32G G40A, the self-cleavage stood at 0.0831. For A78C A87C the value was 0.199. Regarding A16U U27C, the self-cleavage was 0.587.

As for A51U C75A, the self-cleavage was 0.123. For C21G G39A the value was 0.0563; for C21G G39U, 0.0378; for G53C G74U, 0.379.

For U60G A70G, the self-cleavage was 0.911. In the case of G39A A56G, the self-cleavage was found to be 0.509. Take G11A G40C: the self-cleavage was determined as 0.0623. For G38C C86U the value was 0.145. For C18A A70C the value was 0.128; for G39C C61A, 0.192. For G39A C58U the value was 0.443; for G2U A42U, 0.0647. For U27G C75U, the self-cleavage was determined as 0.138. For G34U C36A the value was 0.106.
